Experimental data reported in US20080125498A1 (published 2008).

Biological target: T1, protease-activated receptor 1 (PAR1), rat, endogenous in hippocampal neurons (rat, UniProt P26824 46-432)
T1 sequence (looked up): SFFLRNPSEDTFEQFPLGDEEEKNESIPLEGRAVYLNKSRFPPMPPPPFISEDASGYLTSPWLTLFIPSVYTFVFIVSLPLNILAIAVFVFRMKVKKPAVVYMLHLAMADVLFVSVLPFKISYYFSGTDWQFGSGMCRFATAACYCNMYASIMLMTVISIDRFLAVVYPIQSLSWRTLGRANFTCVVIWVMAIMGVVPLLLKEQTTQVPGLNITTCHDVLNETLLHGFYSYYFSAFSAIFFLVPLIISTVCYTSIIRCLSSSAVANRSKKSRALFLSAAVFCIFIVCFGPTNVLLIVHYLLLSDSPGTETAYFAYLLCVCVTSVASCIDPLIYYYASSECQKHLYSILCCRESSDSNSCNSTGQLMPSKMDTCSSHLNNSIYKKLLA
Assay: cell-based or functional assay

In the case of SFLLRN, the “potentiation of the response to NMDA plus glycine in CA1 pyramidal cells, 30 micromolar SFLLRN” value is reported as 1.76 fold.
